Reference: patent EP1591456A1 (Genentech Inc., dated 2005)

Molecular target: T1, recombinant human DAF (human, UniProt P08174 35-353, limits assumed)
T1 construct: also called recombinant human decay accelerating factor; CD55
T1 sequence (looked up): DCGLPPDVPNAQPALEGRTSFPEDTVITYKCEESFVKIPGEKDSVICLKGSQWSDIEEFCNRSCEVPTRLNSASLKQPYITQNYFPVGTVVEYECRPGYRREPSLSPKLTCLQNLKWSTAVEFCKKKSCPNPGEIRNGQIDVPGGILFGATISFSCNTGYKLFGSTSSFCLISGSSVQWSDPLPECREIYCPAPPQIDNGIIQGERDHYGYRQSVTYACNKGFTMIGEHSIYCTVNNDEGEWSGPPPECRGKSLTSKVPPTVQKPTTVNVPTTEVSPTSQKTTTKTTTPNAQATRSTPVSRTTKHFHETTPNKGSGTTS
Assay: SPR (BIACORE 1000), recombinant human DAF on CM-5 chip, LU30 scFv 25-100 nM injected

B1: LU30 scFv fragment (scFv, V domains shown)
VH: QVKLQESGGGLVQPGGSLKLSCAASGFTFSGYGMSWIRQTPDKRLEWVATINSGGSYTYYSDSVKGRFTISRDNVKNTLYLQMSSLKSEDTAMYYCARRNGTLYYYLMDYWGRGTLVTVSS
VL: QSVLTQPPSASGSPGQSVTISCTGTSSDVGGYNYVSWYQQHPGKAPKFMIYDVSKRPSGVSNRFSGSKSGNTASLTISGVQAEDEADYYCSSYTSASTVIFGGGTKLTVL
notes: Human scFv from a naive phage library (Vaughan et al.), secreted from E. coli and purified by its His tag; The full scFv is said to be under GenBank AF117206; also called clone LU30
Q: With B1 as the binder, how does the Kd read?
A: 13 nM

Q: And the koff?
A: 0.0045 s⁻¹

Q: What about the kon of the same binder?
A: 340000 M⁻¹ s⁻¹
